Data from patent publication US10787647B2, “HSD17B13 variants and uses thereof” (Regeneron Pharmaceuticals, Inc., priority 2017, dated 2020).

T1: recombinant human HSD17B13 (Homo sapiens, UniProt Q7Z5P4)
T1 sequence (Q7Z5P4 20-300): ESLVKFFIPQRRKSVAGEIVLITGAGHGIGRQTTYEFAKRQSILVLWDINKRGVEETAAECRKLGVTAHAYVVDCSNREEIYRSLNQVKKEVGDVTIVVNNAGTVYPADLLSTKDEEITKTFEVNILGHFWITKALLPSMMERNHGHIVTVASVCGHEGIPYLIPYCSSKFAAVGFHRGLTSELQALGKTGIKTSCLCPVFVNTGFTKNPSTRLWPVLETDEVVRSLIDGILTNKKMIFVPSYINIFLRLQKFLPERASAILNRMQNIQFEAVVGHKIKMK

T2: HSD17B13 (Homo sapiens, UniProt Q7Z5P4)
T2 construct: Transcript A, which encodes the full-length 300 amino acid protein; 10x His (C); host or cells: E. coli
T2 sequence (Q7Z5P4 with tags, fused parts or gaps): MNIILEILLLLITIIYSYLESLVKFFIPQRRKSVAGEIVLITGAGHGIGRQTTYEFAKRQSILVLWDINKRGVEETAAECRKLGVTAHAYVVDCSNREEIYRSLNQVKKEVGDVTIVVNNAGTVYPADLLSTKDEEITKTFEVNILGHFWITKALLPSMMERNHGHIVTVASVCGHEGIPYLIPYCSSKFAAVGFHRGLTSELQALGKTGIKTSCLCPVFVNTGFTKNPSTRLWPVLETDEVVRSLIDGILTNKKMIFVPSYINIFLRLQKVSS

B1: HSD17B13 Isoform D: HSD17B13 Protein Isoform D, SEQ ID NO: 15; prematurely truncated protein encoded by Transcript D of the rs72613567 variant (protein, listed as Homo sapiens)
chain: T2 sequence (Q7Z5P4 with tags, fused parts or gaps)
modifications: (1)..(70) Region Encoded by Exon 1; (71)..(106) Region Encoded by Exon 2; (107)..(150) Region Encoded by Exon 3; (151)..(185) Region Encoded by Exon 4; (186)..(232) Region Encoded by Exon 5; (233)..(271) Region Encoded by Exon 6v2; (272)..(274) Region Encoded by Exon 7
B2: HSD17B13 Isoform A: HSD17B13 Protein Isoform A, SEQ ID NO: 12; full-length 300 amino acid protein encoded by Transcript A (protein, listed as Homo sapiens)
chain: MNIILEILLLLITIIYSYLESLVKFFIPQRRKSVAGEIVLITGAGHGIGRQTTYEFAKRQSILVLWDINKRGVEETAAECRKLGVTAHAYVVDCSNREEIYRSLNQVKKEVGDVTIVVNNAGTVYPADLLSTKDEEITKTFEVNILGHFWITKALLPSMMERNHGHIVTVASVCGHEGIPYLIPYCSSKFAAVGFHRGLTSELQALGKTGIKTSCLCPVFVNTGFTKNPSTRLWPVLETDEVVRSLIDGILTNKKMIFVPSYINIFLRLQKFLPERASAILNRMQNIQFEAVVGHKIKMK
modifications: (1)..(70) Region Encoded by Exon 1; (71)..(106) Region Encoded by Exon 2; (107)..(150) Region Encoded by Exon 3; (151)..(185) Region Encoded by Exon 4; (186)..(232) Region Encoded by Exon 5; (233)..(271) Region Encoded by Exon 6v1; (272)..(300) Region Encoded by Exon 7

Key:
[1] = molecular target: T1, recombinant human HSD17B13; assay: Substrate screening of steroid and bioactive lipid libraries against purified recombinant HSD17B13 (NADH-Glo); format: biochemical; settings: putative substrate screen with recombinant protein
Description: Reactions were performed in a final volume of 40 μL of assay buffer (0.2 M Tris-HCl, pH 7.5) which contained 500 μM NAD^±, 5 μM bioactive lipid or 50 μM steroid (all in a final concentration of 5% DMSO), and 100 ng recombinant human HSD17B13. Reactions were incubated for 3 hours, at 23° C., after which an equal volume NADH-Glo Detection Reagent (Promega) was added. Following a 1 hour incubation at 23° C., the relative light units (RLUs) were measured on an Envision Plate Reader (Perkin Elmer). Raw RLU values were normalized as percent of control (50 μM estradiol) following subtraction of negative control (5% DMSO) using the following formula: Percent of control (POC)=100×(Sample (RLU)−Negative CTRLaverage)/(Positive CTRLaverage−Negative CTRLaverage).

HepG2 cells = assay: Quantification of intracellular triglyceride content in stable cell lines; format: cell-based, human; settings: for intracellular triglyceride content versus GFP control: cell lines overexpressing isoform, oleic acid treatment
Description: HepG2 cells were cultured in Eagle's Minimum Essential Medium supplemented with 10% fetal bovine serum. HSD17B13 transcripts A and D were sub-cloned into Myc-DDK backbone lentivirus constructs, and lentivirus were generated. HepG2 cells were infected with lentivirus carrying the HSD17B13 transcripts. Stable cell lines expressing each HSD17B13 transcript were selected with 1-3 mg/ml Geneticin G-418 sulfate in complete culture medium for two weeks. Following fixation, HSD17B13 isoforms were detected with mouse anti-Myc antibody. Lipid droplets were labeled with BODIPY FL dye (Sigma). Secondary antibodies for immunofluorescence were Alexa Fluor 488 donkey anti-rabbit IgG and Alexa Fluor 594 donkey anti-mouse IgG (Jackson ImmunoResearch).
The triglyceride (TG) content from the stable cells was determined using a TG quantification kit (Abcam). In the assay, TG are converted to free fatty acids and glycerol. The glycerol is then oxidized to generate a product which is quantified (spectrophotometry at λ=570 nm).

[2] = test system: HEK293 cells overexpressing HSD17B13 transcript A, transcript D or GFP; assay: Cell-based estradiol to estrone conversion in culture media (LC-MS); set-up: species or system human; settings: overexpressed in HEK293 cells, estradiol 1 μM, 48 hours
Description: HEK293 cells overexpressing HSD17B13 transcript A, transcript D or green fluorescent protein (GFP, control) were used to investigate the activity of HSD17B13 against estradiol in a cell-based assay. Estradiol (1 μM) was fed to each cell type. After 48 hours, the media was collected and the concentration of estradiol and its converted product estrone were identified and quantified by LC-MS.

HSD17B13 = molecular target: T2, HSD17B13; assay: In vitro enzymatic activity of recombinant HSD17B13 isoforms A and D (NADH production, NAD(P)H-Glo); format: biochemical
Description: Recombinant human HSD17B13 protein was purified from E. coli (Genscript) transformed with plasmid DNA harboring HSD17B13 transcript A or transcript D. The HSD17B13 variants contained a 10× His tag at the C terminus and were purified from soluble fraction using a Ni2^+ affinity purification. Enzymatic activity was determined through measurement of NADH production using the NAD(P)H-Glo Detection System (Promega). Reactions were performed for 3 hours at 25° C. in 0.2 M Tris-HCl, pH 7.5, 0.5 mM NAD^+, 75 μM of substrate (Sigma) and 500 ng purified enzyme in a final volume of 100 μL. After incubation, 20 μL of the reaction was combined with 20 μL luciferase reagent (Promega), incubated at room temperature for 1 hour and read on an Envision Plate Reader (Perkin Elmer).

| Molecule | enzymatically converted by HSD17B13 (oxidation of a hydroxyl to a ketone group) [1] | conversion of estradiol (substrate) to estrone (product) measured in the culture media [2] | intracellular triglyceride content versus GFP control (HepG2 cells) | other results |
| --- | --- | --- | --- | --- |
| CCCCCC(O)C=CC=CCCCCCCCC(=O)O (stereo not drawn) [13-Hydroxyoctadecadienoic acid] | enzymatically converted |  |  |  |
| C[C@]12CC[C@@H]3c4ccc(O)cc4CC[C@H]3[C@@H]1CC[C@@H]2O [estradiol, 17-beta estradiol] | enzymatically converted |  |  |  |
| CCCCC/C=C\C[C@@H](O)/C=C/C=C/C=C\[C@@H](O)CCCC(=O)O [leukotriene B4] | enzymatically converted |  |  |  |
| CCCCCCCC/C=C\CCCCCCCC(=O)O [oleic acid, reference compound] |  |  |  | triglyceride (TG) content (HepG2 cells; increasing concentrations of oleic acid, HepG2 GFP control and HSD17B13 Transcript A and D cell lines): increased triglyceride (TG) content |
| B1 |  | did not show much conversion | No differences | conversion of estradiol (substrate) to estrone (product) measured in the culture media ([2]; listed as HSD17B13 isoform D): greatly reduced activity; activity towards the three substrates (HSD17B13; estradiol, leukotriene B4, 13-Hydroxyoctadecadienoic acid, recombinant protein in vitro): greatly reduced activity; activity towards estradiol in vitro compared to HSD17B13 isoform A (HSD17B13; estradiol, recombinant protein, NAD cofactor): greatly reduced activity; enzymatic activity of the corresponding values for Isoform A (HSD17B13; substrates 17-beta estradiol, leukotriene B4, 13(S)-HODE, recombinant protein): < 10% |
| B2 |  | robust conversion | No differences |  |
